According to patent publication US20120189639A1 (Merck Sharp & Dohme, published 2012):
Numbering of substitutions follows the chain as printed.

T1: human GITR on naïve CD4+ T cells (human, UniProt Q9Y5U5 26-241)
T1 sequence: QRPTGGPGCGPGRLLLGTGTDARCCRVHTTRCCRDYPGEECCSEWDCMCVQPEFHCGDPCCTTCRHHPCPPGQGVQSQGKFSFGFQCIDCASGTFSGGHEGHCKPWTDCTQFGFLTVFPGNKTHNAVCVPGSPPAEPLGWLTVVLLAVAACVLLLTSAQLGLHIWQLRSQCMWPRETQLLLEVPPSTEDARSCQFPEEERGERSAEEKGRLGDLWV

T2: hGITR-hIgG (human, UniProt Q9Y5U5 26-161, limits assumed)
T2 construct: not shown: human IgG part of the fusion
T2 sequence: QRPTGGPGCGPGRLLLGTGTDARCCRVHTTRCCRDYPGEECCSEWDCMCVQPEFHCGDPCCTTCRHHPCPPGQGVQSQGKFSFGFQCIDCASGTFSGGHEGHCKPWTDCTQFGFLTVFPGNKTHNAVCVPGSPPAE

B1: 61G6 (antibody, V domains shown)
VH: DVQLQESGPGLVKPSQSLSLTCTVTGYSITSDYAWNWIRQFPGNKLEWMGYISYSGSTRYNPSLKSRISITRDTSKNQFFLQLNSVTSEDTATYYCARQLGLRFFDYWGQGTTLTVSS
VL: QIVLTQSPALMSASPGEKVTMTCSANSTVNYMYWYQQKPRSSPKPCIYLTSNLASGVPARFSGSGSGTSYSLTISSMEAEDAATYYCQQWNSNPPTFGAGTKLELRR
notes: Parental rodent anti-human GITR monoclonal antibody from a hybridoma; kappa VL; also called 61G6.B6; hybridoma PTA-9891
B2: 3D6 (antibody, V domains shown)
VH: EVQLVESGGGLVQPGRSLKLSCAASGFTFSDYYMAWVRQAPTKGLEWVAYIHANGGSTYYRDSVRGRFSISRDNGKSTLYLQMDSLRSEDTATYYCTTGSFMYAADYYIMDAWGQGASVTVSS
VL: DVVMTQTPVSLSVSLGNQASISCRSSQSLLHSDGNTFLSWYFQKPGQSPQLLIYLASNRFSGVSNRFSGSGSGTDFTLKISRVEPEDLGVYYCFQHTHLPLTFGSGTKLEIKR
notes: Parental rodent anti-human GITR monoclonal antibody from a hybridoma; kappa VL; also called JL5.3D6; hybridoma PTA-9889
B3: 36E5 (antibody, V domains shown)
VH: EVNLVESGGGLVKPGGSLKVSCAASGFTFSSYAMSWVRQTPEKRLEWVASISSGGTTYYPDSVKGRFTISRDNARNILYLQMSSLRSEDTAMYYCARVGGYYDSMDYWGQGISVTDSS
VL: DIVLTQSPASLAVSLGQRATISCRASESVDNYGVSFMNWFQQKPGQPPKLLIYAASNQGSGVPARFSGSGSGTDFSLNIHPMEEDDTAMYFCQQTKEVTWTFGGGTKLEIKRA
notes: Parental rodent anti-human GITR monoclonal antibody from a hybridoma; kappa VL; also called 36E5.A5
B4: 61F6 (antibody, V domains shown)
VH: QVQLQQSGAELARPGASVKMSCKASGYTFTSYTMHWVKQRPGQGLEWIGYINPRSVYTNYNQKFKDKATLTADKSSSTAYMQLSSLTSEDSAVYYCARLGGYYDTMDYWGQGTSVTVSS
VL: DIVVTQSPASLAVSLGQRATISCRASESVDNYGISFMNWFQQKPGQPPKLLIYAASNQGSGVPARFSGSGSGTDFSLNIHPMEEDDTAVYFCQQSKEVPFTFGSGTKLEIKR
notes: Parental rodent anti-human GITR monoclonal antibody from a hybridoma; kappa VL; also called 61F6.B9; hybridoma PTA-9893
B5: 6H6 (antibody, V domains shown)
VH: QVQLQQSGAELMKPGASVKISCKATGYTFSRYWIEWIKQRPGHGLEWIGEILPGSGSSNYNEKFKDKATFTADTSSNTAYMQFSSLTSEDSAVYYCARKVYYYAMDFWGQGTSVTVSS
VL: QIVLTQSPAIMSVSLGERVTVTCTASSSVSSSYFHWYQQKPGSSPKLWIYSTSNLASGVPARFSGSGSGTSYSLTISTMEAEDAATYYCHQYHRSPRTFGGGTKLEIKR
notes: Parental rodent anti-human GITR monoclonal antibody from a hybridoma; kappa VL; also called 6H6.C3; hybridoma PTA-9892
B6: 35D8 (antibody, V domains shown)
VH: EVQLQESGPSLVKPSQTLSLTCSVTGDSITSGYWNWIRKFPGNKLEYMGYISYSGSTYYNPSLRGRISITRDTSKSQYYLQLSSVTTEDTATYYCSRRHLGSGYGWFAYWGQGTLVTVSA
VL: DIVMTQSHKFMSTSVGDRVSITCKASQDVNTAVAWYQQKPGQSPKLLIYWASTRHTGVPDRFTGSGSGTDYALTINSVQAEDLALYYCQQHSYTPPWTFGGGTKLEIRR
notes: Parental rodent anti-human GITR monoclonal antibody from a hybridoma; kappa VL; also called 35D8.B10
B7: 49A1 (antibody, V domains shown)
VH: B6 VH with L45F, Y50F, S56N, G65S, S76N, Y79F, Q81H, S83N, G101I
VL: B6 VL with D1V, V15I, S20N, N30I, T31S, Y71F, A72T, L83R, K104N, R108K
notes: Parental rodent anti-human GITR monoclonal antibody from a hybridoma; kappa VL; also called 49A1.B1

molecular target: T1, human GITR on naïve CD4+ T cells; assay: cell-based or functional assay

Row | proliferation of naïve CD4+ T cells, mean, at 0.04 ng/mL Ab | proliferation of naïve CD4+ T cells, mean, at 0.15 ng/mL Ab | proliferation of naïve CD4+ T cells, mean, at 0.61 ng/mL Ab | proliferation of naïve CD4+ T cells, mean, at 2.4 ng/mL Ab | proliferation of naïve CD4+ T cells, mean, at 9.8 ng/mL Ab | proliferation of naïve CD4+ T cells, mean, at 39.1 ng/mL Ab | proliferation of naïve CD4+ T cells, mean, at 156 ng/mL Ab | proliferation of naïve CD4+ T cells, mean, at 625 ng/mL Ab | proliferation of naïve CD4+ T cells, mean, at 2500 ng/mL Ab | proliferation of naïve CD4+ T cells, mean, at 10000 ng/mL Ab | Binder
1 | 31000 | 35600 | 32600 | 28900 | 34300 | 40100 | 45600 | 75100 | 116000 | 135000 | B1
2 | 33300 | 30800 | 33800 | 43100 | 79300 | 124000 | 109000 | 111000 | 109000 | 96200 | B2
3 | 27500 | 26200 | 31000 | 47500 | 78700 | 90300 | 97100 | 82100 | 71800 | 83800 | B3
4 | 34900 | 32000 | 37600 | 61300 | 96300 | 107000 | 108000 | 105000 | 96300 | 93400 | B4
5 | 38500 | 33400 | 30200 | 35600 | 60000 | 104000 | 123000 | 120000 | 107000 | 91900 | B5

molecular target: T1, human GITR on naïve CD4+ T cells; assay: cell-based or functional assay; remark: another data set of the same source

Row | proliferation of naïve CD4+ T cells, mean, at 0.4 ng/mL Ab | proliferation of naïve CD4+ T cells, mean, at 0.9 ng/mL Ab | proliferation of naïve CD4+ T cells, mean, at 2.2 ng/mL Ab | proliferation of naïve CD4+ T cells, mean, at 5.2 ng/mL Ab | proliferation of naïve CD4+ T cells, mean, at 12.6 ng/mL Ab | proliferation of naïve CD4+ T cells, mean, at 30.1 ng/mL Ab | proliferation of naïve CD4+ T cells, mean, at 72.3 ng/mL Ab | proliferation of naïve CD4+ T cells, mean, at 173.6 ng/mL Ab | proliferation of naïve CD4+ T cells, mean, at 416.7 ng/mL Ab | proliferation of naïve CD4+ T cells, mean, at 1000.0 ng/mL Ab | Binder
6 | 52300 | 50700 | 59800 | 71400 | 86200 | 95300 | 92400 | 96200 | 89800 | 97300 | B6
7 | 54300 | 54100 | 61100 | 72200 | 86000 | 95500 | 96100 | 93600 | 86300 | 78000 | B7

molecular target: T2, hGITR-hIgG; assay: BIAcore SPR; hGITR-hIgG capture antigen, mAb analyte
Description: (§1) BIAcore determinations are performed essentially as described at Example 4 of co-pending, commonly assigned U.S. patent application Ser. No. 11/511,635 (filed 29 Aug. 2006). Briefly, binding partners are immobilized on a BIAcore CM5 sensor chip using standard amine-coupling procedure. Kinetic constants for the various interactions are determined using BIAevaluation software 3.1. The Kd is determined using the calculated dissociation and association rate constants.

Row | koff [s⁻¹] | kon [M⁻¹ s⁻¹] | Binder
8 | 6.9e-05 | 4000 | B1
9 | 0.0002 | 801000 | B6
10 | 0.000318 | 478000 | B7
11 | 0.000766 | 95000 | B2
12 | 0.000177 | 864000 | B3
13 | 0.0135 | 1.11e+06 | B4
14 | 0.000919 | 610000 | B5

molecular target: T2, hGITR-hIgG; assay: BIAcore SPR; hGITR-hIgG capture antigen, mAb analyte; apparent Kd
Description: as §1

Row | Kd [nM] | Binder
15 | 15.6 | B1
16 | 0.25 | B6
17 | 0.665 | B7
18 | 8.05 | B2
19 | 0.205 | B3
20 | 12.2 | B4
21 | 1.51 | B5
